Assay results as given in the Immune Epitope Database (IEDB).

Experiments:
HLA-A*01:01 = test: IEDB peptide-MHC binding, purified MHC/competitive/radioactivity; filed as Kd, often an IC50 or EC50 that approximates it; ≥ and ≤ were set here for values at or beyond the usual limits of such assays
HLA-A*30:02 = test: as above
HLA-A*26:01 = test: as above
HLA-A*02:01 [1] = test: IEDB peptide-MHC binding, purified MHC/competitive/fluorescence; filed as Kd, often an IC50 or EC50 that approximates it; ≥ and ≤ were set here for values at or beyond the usual limits of such assays
HLA-A*02:01 [2] = test: IEDB peptide-MHC binding, purified MHC/competitive/fluorescence; ≥ and ≤ were set here for values at or beyond the usual limits of such assays
HLA-A*29:02 = test: IEDB peptide-MHC binding, purified MHC/competitive/radioactivity; filed as Kd, often an IC50 or EC50 that approximates it; ≥ and ≤ were set here for values at or beyond the usual limits of such assays
HLA-A*23:01 = test: as above
HLA-A*24:02 = test: as above
HLA-A*69:01 = test: IEDB peptide-MHC binding, purified MHC/direct/fluorescence; filed as Kd, often an IC50 or EC50 that approximates it; ≥ and ≤ were set here for values at or beyond the usual limits of such assays
HLA-A*02:01 [3] = test: as above
[4] = source organism: Dengue virus 2 Jamaica/1409/1983
[5] = source organism: Mammarenavirus choriomeningitidis
[6] = source organism: Zaire ebolavirus
[7] = source organism: Mammarenavirus whitewaterense
[8] = source organism: Pseudomonas aeruginosa
[9] = source organism: SARS coronavirus Tor2
[10] = source organism: Triticum aestivum
[11] = source organism: Salmonella enterica subsp. enterica serovar Typhimurium
[12] = source organism: Mycobacterium tuberculosis

VSQHNYRPGY was tested, and the Kd (HLA-A*01:01; [4]) was 6790 nM and the Kd (HLA-A*30:02; [4]) was 385 nM.
For PDLKTIHNIL, the Kd (HLA-A*01:01; [5]) was at least 70400 nM, the Kd (HLA-A*26:01; [5]) was at least 69700 nM and the Kd (HLA-A*30:02; [5]) was 10300 nM.
With AMISLAKKI the Kd (HLA-A*02:01 [1]; source organism: Vaccinia virus WR 65-16) was 903 nM.
With KLTDSLSSQ the IC50 (HLA-A*02:01 [2]; source organism: Vaccinia virus Copenhagen) was 44600 nM.
HHQDTGEES showed an IC50 (HLA-A*02:01 [2]; [6]) of at least 223000 nM.
For RGSGQVGTY, the Kd (HLA-A*30:02; [4]) was 208 nM.
With LQFIVFLLL the Kd (HLA-A*29:02; [7]) was 4670 nM, the Kd (HLA-A*23:01; [7]) was 11300 nM and the Kd (HLA-A*24:02; [7]) was at least 77500 nM.
Work on ACMDGFEVV yielded a Kd (HLA-A*69:01; [8]) of 2700 nM and a Kd (HLA-A*02:01 [3]; [8]) of 290 nM.
With GTTVVKVKY the Kd (HLA-A*30:02; source organism: Dengue virus 4 Philippines/H241/1956) was 244 nM.
Work on LYDANYFVCW yielded a Kd (HLA-A*01:01; [9]) of 1130 nM, a Kd (HLA-A*26:01; [9]) of 9640 nM and a Kd (HLA-A*29:02; [9]) of 1440 nM. The Kd (HLA-A*30:02; [9]) was 13400 nM, the Kd (HLA-A*23:01; [9]) was 24.5 nM and the Kd (HLA-A*24:02; [9]) was 55.4 nM.
Work on KLTLKGMSY yielded a Kd (HLA-A*30:02; source organism: Dengue virus 1 Singapore/S275/1990) of 521 nM.
Sequence LVAEMDGIQY has a Kd (HLA-A*01:01; [9]) of 246 nM, a Kd (HLA-A*26:01; [9]) of 346 nM and a Kd (HLA-A*29:02; [9]) of 103 nM. The Kd (HLA-A*30:02; [9]) was 102 nM, the Kd (HLA-A*23:01; [9]) was at least 70000 nM and the Kd (HLA-A*24:02; [9]) was at least 70300 nM.
In the case of EQYQQLREA, the IC50 (HLA-A*02:01 [2]; [6]) is reported as at least 221000 nM.
Sequence DWIPLALTI has a Kd (HLA-A*24:02; [4]) of 16 nM.
For QFPGQQQPF, the Kd (HLA-A*01:01; [10]) was at least 48900 nM, the Kd (HLA-A*26:01; [10]) was at least 25900 nM and the Kd (HLA-A*29:02; [10]) was 1530 nM. The Kd (HLA-A*30:02; [10]) was 185 nM, the Kd (HLA-A*23:01; [10]) was 19800 nM and the Kd (HLA-A*24:02; [10]) was 676 nM.
Sequence PYRVVVLSF has a Kd (HLA-A*01:01; [9]) of 1480 nM, a Kd (HLA-A*26:01; [9]) of 1040 nM and a Kd (HLA-A*29:02; [9]) of 11500 nM. For the same sequence, the Kd (HLA-A*30:02; [9]) was at least 93800 nM, the Kd (HLA-A*23:01; [9]) was 20.8 nM and the Kd (HLA-A*24:02; [9]) was 100 nM.
For EFLTRNPAW, the Kd (HLA-A*01:01; [9]) was at least 78100 nM, the Kd (HLA-A*26:01; [9]) was at least 69000 nM and the Kd (HLA-A*29:02; [9]) was at least 45200 nM. For the same sequence, the Kd (HLA-A*30:02; [9]) was at least 100000 nM, the Kd (HLA-A*23:01; [9]) was at least 84500 nM and the Kd (HLA-A*24:02; [9]) was at least 84500 nM.
With FAHELEMLC the Kd (HLA-A*69:01; [11]) was 720 nM and the Kd (HLA-A*02:01 [3]; [11]) was 1170 nM.
For KLAGGVAVL, the IC50 (HLA-A*02:01 [2]; source organism: Porphyromonas gingivalis) was 120 nM.
AGPISQHNY gave a Kd (HLA-A*30:02; source organism: Dengue virus 3 Sri Lanka/1266/2000) of at least 76900 nM.
For AVGIGLRLV, the Kd (HLA-A*69:01; [12]) was at least 20000 nM and the Kd (HLA-A*02:01 [3]; [12]) was 128 nM.
IYKAPSENW showed a Kd (HLA-A*24:02; source organism: Homo sapiens) of 39 nM.
FLHEDLEKL was tested, and the Kd (HLA-A*02:01 [1]; source organism: unidentified) was 10 nM.
SEELSFTVV showed an IC50 (HLA-A*02:01 [2]; [6]) of at least 145000 nM.
Work on TIGEWAFWE yielded an IC50 (HLA-A*02:01 [2]; [6]) of at least 245000 nM.
With QIGDIIIAV the IC50 (HLA-A*02:01 [2]; source organism: Variola virus) was 293 nM.
For RILGPDCCI, the IC50 (HLA-A*02:01 [2]; source organism: Sudan ebolavirus) was 64000 nM.
